The target of this experiment is USP7 TRAF domain (residues 2-207), biotinylated (UniProt Q93009). Put plainly: fluorescence polarisation. As to conditions: read at the highest USP7-TRAF concentration, about 190 µM; parent: est. 100; read off a plot. A general note: Fluorescence polarisation rises when a labelled molecule tumbles more slowly, as on binding a larger partner.
USP7 TRAF domain (residues 2-207), biotinylated, sequence (Q93009 2-207): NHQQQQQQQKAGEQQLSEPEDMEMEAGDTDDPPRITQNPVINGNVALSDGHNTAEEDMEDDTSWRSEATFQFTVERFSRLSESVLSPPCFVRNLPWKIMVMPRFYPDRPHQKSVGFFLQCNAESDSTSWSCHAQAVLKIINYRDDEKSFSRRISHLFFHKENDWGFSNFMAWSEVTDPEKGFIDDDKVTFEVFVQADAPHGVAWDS

On to “FITC-labelled FAN1-derived 8mer peptide, wild-type (181-PQSS-184 region) Q182A”, for which the response (% (normalized FP)) was 99. Take “FITC-labelled FAN1-derived 8mer peptide, wild-type (181-PQSS-184 region) P181A”: the response (% (normalized FP)) came to 100. Turning to “FITC-labelled FAN1-derived 8mer peptide, wild-type (181-PQSS-184 region) S184A”, the response (% (normalized FP)) turned out to be 30.

These data come from paper PMC13086964, “USP7 deubiquitinase stabilizes FAN1 to support DNA crosslink repair and suppress CAG repeat expansion” (Nature Communications, 2026).
